Reference: the supplement of paper PMC9170038

Tested on: MS2 coat protein
Test: apparent KD of MS2 coat protein; designed switch direction (-1 OFF switch, 1 ON switch): 1; higher = weaker reporter binding
Summary of the method: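 Transcription of designed RNA switches on Illumina chips was done by stalled E. coli RNA polymerase. SNAP-549-labelled MS2 coat protein was then titrated in doubling steps from 0.7 or 1.5 nM to 3 µM, with steps of 0.8–1.5 h at the lowest and 10–20 min at the highest concentration. The per-design median over clusters of curve-fitted normalised fluorescence is reported as apparent KD.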

[1] = Eterna round: R95, input ligand: FMN 200 uM
[2] = Eterna round: R95, input ligand: microRNA oligo, concentration not stated
[3] = Eterna round: R95, input ligand: none
[4] = input ligand: microRNA oligo, concentration not stated

## AUAAGUUUGAUGCUCGUCUCUCCGUACAAACAUGAGGAUCACCCAUGUGGUCGGGAAGUAGCCCAGCCAGUAUGGCC [Anriquradi] (puzzle: Sensor for hsa-mir-208a)
[1]
  apparent KD of MS2 coat protein: 15.3 nM
[2]
  apparent KD of MS2 coat protein: 19.9 nM
[3]
  apparent KD of MS2 coat protein: 17.1 nM

## AUAAUAAUAACUGAGGAUAUGUUGAUAAAGACAUGAGGAUCACCCAUGUGAAAUAAAAUAAUAAUACAGAAGGCAGAAUAAUAAA [JMF's solution 1] (puzzle: Same State 2)
[1]
  apparent KD of MS2 coat protein: 23 nM
[2]
  apparent KD of MS2 coat protein: 29.7 nM
[3]
  apparent KD of MS2 coat protein: 25.7 nM

## AUACAGGAGCCACAUGAGGAUCACCCAUGUGACACGCAAAUGAAGGAUAUCCGACUCCAGACGAGGGAGAAGGUCACGGCGGGC [Eternabot solution 13] (Eterna round: R96, puzzle: Same State NG 3)
Input ligand: FMN 200 uM
  apparent KD of MS2 coat protein: 16.6 nM
[4]
  apparent KD of MS2 coat protein: 11.5 nM
Input ligand: none
  apparent KD of MS2 coat protein: 20.1 nM

## AUACAUGAGGAUCACCCAUGUAAUUAAUUAACUAGUAAGAUCUAGGAUAUCAGCUCGAUUAGAGCUGAGAAGGAGAUCACAUGU [SSNG3/21-A2] (Eterna round: R96, puzzle: Same State NG 3)
[4]
  apparent KD of MS2 coat protein: 29.3 nM

## AUACAUGAGGAUCACCCAUGUAAUUAAUUAAUUAAUAAGAUCUAGGAUAUCAGCUCGAAUAGAGCUGAGAAGGAGAUCACAUGU [SSNG3/21-B1] (Eterna round: R96, puzzle: Same State NG 3)
[4]
  apparent KD of MS2 coat protein: 19.4 nM

## AUACAUGAGGAUCACCCAUGUAAUUAAUUAAUUAAUAAGAUCUAGGAUAUCAGCUCGAUUAGAGCUGAGAAGGAGAUCACAUGU [SSNG3/21-B2] (Eterna round: R96, puzzle: Same State NG 3)
[4]
  apparent KD of MS2 coat protein: 16.8 nM

## AUACAUGAGGAUCACCCAUGUGAGCAGAGAUAUCUGAUGUACAAGGAUAUCCGAGGGAUCCCGAUGGAGAAGGUGUGCCACCUG [Eternabot solution 22] (Eterna round: R96, puzzle: Same State NG 3)
Input ligand: FMN 200 uM
  apparent KD of MS2 coat protein: 57.1 nM
[4]
  apparent KD of MS2 coat protein: 43 nM
Input ligand: none
  apparent KD of MS2 coat protein: 55.9 nM

## AUACCAUCGGGAGGAUAUGGCACCUUAUUGGUGCCAGAAGGUCCAACAUGAGGAUCACCCAUGUGGGAGUGGUCUAAUGACCAC [Fiskers NG1ss - 28] (Eterna round: R96, puzzle: Same State NG 1)
Input ligand: FMN 200 uM
  apparent KD of MS2 coat protein: 121 nM
[4]
  apparent KD of MS2 coat protein: 120 nM
Input ligand: none
  apparent KD of MS2 coat protein: 171 nM

## AUACUCAUGUAAGGAUAUGCAGCCGAAACGGCUGCAGAAGGUACUAUAAUACAUGAGGAUCACCCAUGUCAAAAUAAAAUAGUU [Mat - Same State NG 1 - JL mod - D100] (Eterna round: R96, puzzle: Same State NG 1)
Input ligand: FMN 200 uM
  apparent KD of MS2 coat protein: 20.6 nM
[4]
  apparent KD of MS2 coat protein: 25.4 nM
Input ligand: none
  apparent KD of MS2 coat protein: 25 nM

## AUAUAACAUGAGGAUCACCCAUGUCAACAAAGUCGAGGAUAUGGGCAAAUAAAAUAAGAACCAGAAGGCGAAUAAU [salish99_ss1_r3_047] (Eterna round: R96, puzzle: Same State 1)
[4]
  apparent KD of MS2 coat protein: 189 nM

## AUAUAACAUGAGGAUCACCCAUGUCAACAAAGUCGAGGAUAUGGGCAAAUAAAAUAAGAACCAGAAGGCGAAUAAU [salish99_ss1_r3_047] (puzzle: Same State 1)
[1]
  apparent KD of MS2 coat protein: 42.2 nM
[2]
  apparent KD of MS2 coat protein: 462 nM
[3]
  apparent KD of MS2 coat protein: 693 nM

## AUAUAACAUGAGGAUCACCCAUGUCACUAAAGUCGAGGAUAUGGGCAGGUUAUAUCCGAACCAGAAGGCGAAUUAU [SS1 Teenbexe 6] (Eterna round: R96, puzzle: Same State 1)
Input ligand: FMN 200 uM
  apparent KD of MS2 coat protein: 41 nM
[4]
  apparent KD of MS2 coat protein: 221 nM
Input ligand: none
  apparent KD of MS2 coat protein: 208 nM

## AUAUAACAUGAGGAUCACCCAUGUCACUAAAGUCGAGGAUAUGGGCAGGUUAUAUCCGAACCAGAAGGCGAAUUAU [SS1 Teenbexe 6] (puzzle: Same State 1)
[2]
  apparent KD of MS2 coat protein: 163 nM

## AUAUGAGAAGCAGGAUAUGCGGAGAAGAAAGAAGCAGAAGGGCUUAUGGGACAACAUGAGGAUCACCCAUGUUCUCUGCGAUGA [AK SSNG1-V2-3.1] (Eterna round: R96, puzzle: Same State NG 1)
Input ligand: FMN 200 uM
  apparent KD of MS2 coat protein: 60.6 nM
[4]
  apparent KD of MS2 coat protein: 148 nM
Input ligand: none
  apparent KD of MS2 coat protein: 135 nM

## AUAUGAGAAGCAGGAUAUGUGAAAAAAAAACAUACAGAAGGGUUUAUGGGACAACAUGAGGAUCACCCAUGUUCUCUGUGAUGA [AK SSNG1-V2-1.1] (Eterna round: R96, puzzle: Same State NG 1)
[4]
  apparent KD of MS2 coat protein: 59.2 nM

## AUAUGAGAAGCAGGAUAUGUGGAGAAGAAACAAACAGAAGGGCUUAUGGGACAACAUGAGGAUCACCCAUGUUCUCUGUGAUGA [ssng1 a] (Eterna round: R96, puzzle: Same State NG 1)
Input ligand: FMN 200 uM
  apparent KD of MS2 coat protein: 47.9 nM
[4]
  apparent KD of MS2 coat protein: 137 nM
Input ligand: none
  apparent KD of MS2 coat protein: 240 nM

## AUAUGAGGAGCAGGAUAUGCGAAGAAGAAAGAAGCAGAAGGGCUCAUGGGACGACAUGAGGAUCACCCAUGUACUUCGCGAUGA [AK SSNG1-V2-6] (Eterna round: R96, puzzle: Same State NG 1)
Input ligand: FMN 200 uM
  apparent KD of MS2 coat protein: 133 nM
[4]
  apparent KD of MS2 coat protein: 278 nM
Input ligand: none
  apparent KD of MS2 coat protein: 538 nM

## AUCCGGAGAAAACAAAUCCGACAUGAGGAUCACCCAUGUACACAGGAUAUCAGCCCGUUGAGGGCUGAGAAGGGUGGCCGAGUG [Cexeati] (Eterna round: R96, puzzle: Same State NG 3)
Input ligand: FMN 200 uM
  apparent KD of MS2 coat protein: 267 nM
[4]
  apparent KD of MS2 coat protein: 72.7 nM
Input ligand: none
  apparent KD of MS2 coat protein: 130 nM

## AUCCUACAUGAGGAUCACCCAUGUGACGCCUCAAUAGGAUAUCGGGCCCAAAAUCGGGCACGAGAAGGAUUGAAGC [Aveso] (puzzle: Same State 1)
[1]
  apparent KD of MS2 coat protein: 85.2 nM
[2]
  apparent KD of MS2 coat protein: 172 nM
[3]
  apparent KD of MS2 coat protein: 163 nM

## AUGAAGAAUUAAGGAUAUUGAUUACAUAUGUUUAACAUGAGGAUCACCCAUGUGGGUUGCGGUAUCGAGAAGGUAAAAUAAUAG [Mat - same State NG 2 - JL mod - D85] (Eterna round: R96, puzzle: Same State NG 2)
Input ligand: FMN 200 uM
  apparent KD of MS2 coat protein: 187 nM
[4]
  apparent KD of MS2 coat protein: 123 nM
Input ligand: none
  apparent KD of MS2 coat protein: 158 nM

## AUGAUCUACCGAAAGGUAGAUCGGCUUGUACAUGAGGAUCACCCAUGUAUGUACAAGCUUUUUGCUCGUCUUAUAAA [Modxample - Jieux - Sensor for bsa-mir-208a] (Eterna round: R96, puzzle: Sensor for hsa-mir-208a)
Input ligand: FMN 200 uM
  apparent KD of MS2 coat protein: 279 nM
[4]
  apparent KD of MS2 coat protein: 16.6 nM
Input ligand: none
  apparent KD of MS2 coat protein: 282 nM

## AUGCCAAAAUGAGGAUAUGGAGCCUUAUUGGCUCCAGAAGGCGUGACAUGAGGAUCACCCAUGUGGCAGUGGUCUAAUGACCAC [Eli NG1ss - 44] (Eterna round: R96, puzzle: Same State NG 1)
Input ligand: FMN 200 uM
  apparent KD of MS2 coat protein: 21.9 nM
[4]
  apparent KD of MS2 coat protein: 53.3 nM
Input ligand: none
  apparent KD of MS2 coat protein: 77 nM
